The record followed here is article doi:10.1101/2025.03.28.645892, “Plant-specific adaptations of the CDC48 unfoldase” (bioRxiv, 2025).

As usually defined, the Kd is the free concentration of one partner at which half of the binding sites on the other are occupied at equilibrium, for simple one-to-one binding.

Assay [1] concerns the target T1, Arabidopsis thaliana NPL4 (Arabidopsis thaliana, UniProt O82264 1-413, Alexa-488 dye label in the MST experiments only).
T1 construct: Nuclear protein localisation protein 4 (AtNPL4), Arabidopsis thaliana, locus AT2g47970; cDNA cloned into pGEX6P-1; also called AtNPL4; wild-type AtNPL4; not shown: GST, N-terminal, cleaved
T1 sequence: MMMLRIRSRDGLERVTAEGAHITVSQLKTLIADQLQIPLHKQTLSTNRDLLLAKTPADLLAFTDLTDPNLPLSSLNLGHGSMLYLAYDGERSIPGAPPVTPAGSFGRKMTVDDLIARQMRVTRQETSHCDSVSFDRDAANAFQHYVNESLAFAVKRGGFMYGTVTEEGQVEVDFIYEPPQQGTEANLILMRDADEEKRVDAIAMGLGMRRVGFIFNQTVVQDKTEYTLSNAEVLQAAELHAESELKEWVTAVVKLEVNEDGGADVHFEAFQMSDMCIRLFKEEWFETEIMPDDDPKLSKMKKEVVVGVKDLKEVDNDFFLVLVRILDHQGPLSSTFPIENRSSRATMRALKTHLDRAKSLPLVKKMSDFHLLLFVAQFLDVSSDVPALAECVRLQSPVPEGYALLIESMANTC
The assay is described as follows: MST; Alexa-488-labelled AtNPL4 (50 nM dye solution mixed 1:1), AtUFD1A or AtUFD1B titrated in 16 dilutions; pH 7.5 (50 mM Tris-HCl, 100 mM NaCl, 1 mM TCEP), Tween-20. Particulars: both partners purified.

For assay [2], the target named is T2, Arabidopsis thaliana CDC48A (Arabidopsis thaliana, UniProt P54609 1-809).
T2 construct: Cell division cycle protein 48 A (AtCDC48A), Arabidopsis thaliana, locus AT3g09840; recombinant full-length protein; Homo-hexamer; ADP-saturated or nucleotide-free in some experiments (told by the assay); also called AtCDC48A; AtCDC48; not shown: GST, N-terminal, cleaved
In words: ITC; AtCDC48A in the cell (30 µM; 10 µM for AtNPL4B UBXL), partner 200 µM in the syringe; 2 mM AMPPNP; 50 mM Bis-Tris pH 6.5, 100 mM NaCl, 1 mM TCEP, 2 mM MgCl2; 25°C. The settings on record: both partners purified. Background: ITC needs no label: the signal is the heat of the interaction.

T2 sequence (P54609 whole entry): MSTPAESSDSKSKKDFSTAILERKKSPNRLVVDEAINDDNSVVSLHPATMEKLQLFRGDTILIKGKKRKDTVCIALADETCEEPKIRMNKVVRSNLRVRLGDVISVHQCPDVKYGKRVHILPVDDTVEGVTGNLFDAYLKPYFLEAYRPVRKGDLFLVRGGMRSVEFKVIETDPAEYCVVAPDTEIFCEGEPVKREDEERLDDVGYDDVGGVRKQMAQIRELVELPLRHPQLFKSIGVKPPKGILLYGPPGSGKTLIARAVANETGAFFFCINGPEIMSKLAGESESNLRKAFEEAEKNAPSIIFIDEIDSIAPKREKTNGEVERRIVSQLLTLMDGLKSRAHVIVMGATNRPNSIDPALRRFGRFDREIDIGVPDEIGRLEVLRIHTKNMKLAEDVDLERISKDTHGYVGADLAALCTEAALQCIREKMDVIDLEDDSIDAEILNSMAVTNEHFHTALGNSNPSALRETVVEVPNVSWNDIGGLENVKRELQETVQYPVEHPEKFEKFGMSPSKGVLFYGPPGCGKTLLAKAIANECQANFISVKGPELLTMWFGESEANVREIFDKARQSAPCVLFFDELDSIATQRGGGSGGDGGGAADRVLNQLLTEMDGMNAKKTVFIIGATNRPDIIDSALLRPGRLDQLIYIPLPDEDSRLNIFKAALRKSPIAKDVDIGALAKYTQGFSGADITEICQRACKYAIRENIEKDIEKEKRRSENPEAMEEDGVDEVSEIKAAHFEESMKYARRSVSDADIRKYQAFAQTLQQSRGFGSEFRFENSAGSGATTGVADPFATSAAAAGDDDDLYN

B1: Arabidopsis thaliana UFD1B (natural protein, UniProt Q9SJV0 1-340, looked up)
chain: MVLRFCCHLLTYSVSLLPPITMFFDGYHYHGTTFEQSYRCYPASFIDKPQLESGDKIIMPPSALDRLASLHIDYPMLFELRNAGIERVTHCGVLEFIAEEGMIYMPYWMMQNLLLQEGDIVRVRNVTLPKGTYVKLQPHTTDFLDISNPKAILETALRNYSCLTSGDSIMVPYNNKKYFIDIVETKPANAISIIETDCEVDFAPPLDYKEPERPTAPSAAKGPAKAEEVVDEPEPKFNPFTGSGRRLDGRPLAYEPAPASSSKGKQPVVANGNGQSSVASSSEKATRAQGKLVFGANGNRAPKEAAPKVGAAKETKKEEQEKKDEPKFQAFSGKKYSLRG
notes: Ubiquitin fusion degradation protein 1 paralogue B (AtUFD1B), Arabidopsis thaliana, locus AT2g21270; cDNA cloned into pGEX6P-1; also called AtUFD1B; AtUFD1; not shown: GST, N-terminal, cleaved
Molecule B1 came in with a dissociation constant (Kd) in assay [1] of over 200 µM.

B2: AtNPL4B F105A (natural protein, Arabidopsis thaliana, UniProt Q9LYC2 1-413, looked up)
chain: MTMLRVRSRDGLERVSVDGPHITVSQLKTLIQDQLQIPIHNQTLSTNRNLLLAKSPSDFLAFTDMADPNLRISSLNLAHGSMVYLAYEGERTIRGGPAVTPAGSAGRKMTVEDLIARQMRVGRQEKAHCDSVSFDRDCANAFQHFVNESLAFAVKRGGFMYGNVSEDGQVEVNFIYEPPQQGMEDNLILMRDSEEEKRVDAIALGLGMRRVGFIFNQTVTQDKKEYTLSNVEVLLAAQLHAESELKEWVTAVVKLEINEDGGADVHFEPFQMSDMCVRLFKEGWFETEIGPEDDPKLSKLKKEVVVGVKDVKEVDNDFFLVLVKILDHQGPLSCTFPIENRNTQTTMRALKTHMERARSLPFVKRISDFHLLLFVAQFLDVSSDVPALAECVRLQSHVPEGYELLIDSMANTS
notes: AtNPL4B, second NPL4 variant of Arabidopsis thaliana, locus AT3g63000 (84% identical to AtNPL4); ordered from Twist Biosciences in pGEX6P-1; The wild-type AtNPL4B was not measured; also called the F105 mutant; not shown: GST, N-terminal, cleaved
With B2, the binding result in assay [2] is on record as “binds”.

B3: AtNPL4B UBXL domain (domain or fragment, Arabidopsis thaliana, UniProt Q9LYC2 1-89, looked up)
chain: MTMLRVRSRDGLERVSVDGPHITVSQLKTLIQDQLQIPIHNQTLSTNRNLLLAKSPSDFLAFTDMADPNLRISSLNLAHGSMVYLAYEG
notes: UBX-like (UBXL) domain of AtNPL4B, Arabidopsis thaliana, locus AT3g63000, residues 1-89; also called the isolated UBXL domain; not shown: GST, N-terminal, cleaved
As for B3, the “stoichiometry N” value in assay [2] is 6 AtNPL4B_(UBXL) per hexamer.
